Data as given in patent US20110195896A1, “ISOFORM-SPECIFIC INSULIN ANALOGUES” (CASE WESTERN RESERVE UNIVERSITY, priority 2008, published 2011).

Assays:
[1] = target: human insulin receptor isoform B (human) (UniProt P06213); test: competitive displacement of 125I-human insulin, FLAG-tagged receptor captured on anti-FLAG plate; settings: scale: % of the affinity of human insulin for IR-A
[2] = target: human insulin receptor isoform B (human) (UniProt P06213); test: competitive displacement of 125I-insulin from receptor

Chain of His^A8, Asp^B10, Asp^B28, Pro^B29 insulin (two chain analogue) (ligand) (chain): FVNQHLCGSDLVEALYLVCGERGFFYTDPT
Chain of His^A8, Asp^B10, Asp^B28, Pro^B29 insulin (two chain analogue) (ligand) (chain): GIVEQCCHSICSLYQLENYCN

relative affinity [1]	Kd [2] [nM]	relative affinity (relative to human insulin) [2]	Substance
4			insulin-like growth factor II (from UniProt P01344 25-91) (ligand)
0.7			Insulin-like Growth Factor 1 (from UniProt P05019 49-118) (ligand)
	0.01	4.7	His^A8, Asp^B10, Asp^B28, Pro^B29 insulin (two chain analogue) (ligand)
